Test [1] has as its target human RetGC1 p.(Leu587Val) (human) (UniProt Q02846).
In test [2] the target is human RetGC1 p.(Arg624Gln) (human) (UniProt Q02846).
Test [3] concerns the target T1, human retinal guanylyl/guanylate cyclase 1 (RetGC1), wild type (human) (UniProt Q02846).
T1 sequence: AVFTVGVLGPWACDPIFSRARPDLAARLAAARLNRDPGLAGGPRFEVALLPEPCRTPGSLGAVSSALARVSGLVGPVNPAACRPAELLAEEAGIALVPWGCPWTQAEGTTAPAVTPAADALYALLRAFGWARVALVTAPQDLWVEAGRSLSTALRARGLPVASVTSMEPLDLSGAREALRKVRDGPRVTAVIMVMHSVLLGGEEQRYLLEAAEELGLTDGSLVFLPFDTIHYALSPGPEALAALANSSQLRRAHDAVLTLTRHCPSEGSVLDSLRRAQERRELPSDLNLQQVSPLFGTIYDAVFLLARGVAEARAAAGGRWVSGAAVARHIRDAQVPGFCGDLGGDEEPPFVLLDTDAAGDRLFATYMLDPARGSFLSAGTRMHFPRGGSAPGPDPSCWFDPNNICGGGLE

For test [4], the target named is human RetGC1 p.(Tyr555Ser) (human) (UniProt Q02846).

This note sets out measurements from article PMC12155690.

B1: Human GCAP1 (Ser6) (natural protein)
chain: MGNVMSGKSVEELSSTECHQWYKKFMTECPSGQLTLYEFRQFFGLKNLSPSASQYVEQMFETFDFNKDGYIDFMEYVAALSLVLKGKVEQKLRWYFKLYDVDGNGCIDRDELLTIIQAIRAINPCSDTTMTAEEFTDTVFSKIDVNGDGELSLEEFIEGVQKDQMLLDTLTRSLDLTRIVRRLQNGEQDEEGADEAAEAAG
With B1, the [GCAP]1/2: GCAP1 concentration producing half-maximal stimulation of guanylyl cyclase activity (HEK293 membranes, 10 mM MgCl2, 2 mM EGTA) in test [1] stood at 2.4 µM; in test [2], 4.1 µM; in test [3] it was 0.98 µM; in test [4], 4.4 µM.
